Experimental findings from patent US7915395B2 are described below.

This assay addresses human CD3-ε (human) (UniProt P07766).
Chain of UniProt P07766 (P07766 23-207): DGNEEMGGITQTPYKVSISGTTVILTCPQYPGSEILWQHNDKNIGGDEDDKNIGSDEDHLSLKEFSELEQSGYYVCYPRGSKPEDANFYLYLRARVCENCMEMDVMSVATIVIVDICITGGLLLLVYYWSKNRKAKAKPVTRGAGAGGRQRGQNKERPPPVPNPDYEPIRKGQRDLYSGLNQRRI

Turning to native anti-CD3 Mab G19-4 (antibody), the Proliferation (day 3, cpm × 10^-3), Purified T Cells + (0.5 ng/ml PMA) was found to be 83.6 cpm × 10^-3.
With G19-4 Fab, the Proliferation (day 3, cpm × 10^-3), Purified T Cells + (2 µg/ml 9.3) is 58.4 cpm × 10^-3.

B1: CD3 sFv (VL-VH, no tag) (scFv)
scFv: VDIQMTQTTSSLSASLGDRVTISCRASQDIRNYLNWYQQKPDGTVKLLIYYTSRLHSGVPSRFSGSGSGTDYSLTIANLQPEDIATYFCQQGNTLPWTFGGGTKLVTKRELGGGGSGGGGSGGGGSIDEVQLQQSGPELVKPGASMTMSCKASGYSFTGYIVNWLKQSHGKNLEWIGLINPWKGLTTYNQKFKGKATLTVDKSSSTAYMELLSLTSEDSAVYYCARSGYYGDSDWYFDVWGAGTTCTVSSFESDQSNSEEAKKEEAKKEEAKKSNSLESL
In the case of B1, the Proliferation (day 3, cpm × 10^-3), Purified T Cells + (0.5 ng/ml PMA) worked out at 65 cpm × 10^-3.
